{"source": "patent US20020103136", "key": {"[1]": {"tested_on": "Ac-4-trans-L-Hyp-SSChgQ-SS-(HCAP)-(dAc)-VIN"}, "[2]": {"tested_on": "Ac-4-trans-L-HypSSChgQSP(HCAP)-VIN"}, "[3]": {"tested_on": "Ac-4-trans-L-HypSSChgQS-cyclohexylalaninol-(dAc)-VIN"}, "[4]": {"tested_on": "Ac-SSChgQ-SSP-(HCAP)-dAc-VIN"}, "[5]": {"tested_on": "Ac-AbuSSChgQ-S-(HCAP)-VIN"}, "[6]": {"tested_on": "N-hydroxyacetyl-AbuSSChgQ-SP-(HCAP)-(dAc)-VIN"}, "[7]": {"tested_on": "Ac-SChgQSS-gammaAbu-(HCAP)-dAc-VIN"}, "[8]": {"tested_on": "Ac-SChgQSS-Sar-(HCAP)-dAc-VIN"}, "[9]": {"tested_on": "Ac-SChgQ-SP-(HCAP)-(dAc)-VIN"}, "[10]": {"tested_on": "Ac-SChgQSS(PIP)-(HCAP)-dAc-VIN"}, "[11]": {"tested_on": "Ac-(4-trans-L-Hyp)SSChgQ-SPheol-(dAc)-VIN"}, "[12]": {"tested_on": "Ac-AbuSSChgQ-SP-(HCAP)-(dAc)-VIN"}, "[13]": {"tested_on": "Ac-SSChgQ-SP-(HCAP)-(dAc)-VIN"}, "[14]": {"tested_on": "Ac-SChgQ-SS(4-trans-L-Hyp)-(HCAP)-dAc-VIN"}}, "data": [{"substance": "free prostate specific antigen (PSA)", "values": [{"measurement": "Time to 50% Substrate Cleavage by York PSA", "setting": "[1]", "result": 17, "unit": "min"}, {"measurement": "Time to 50% Substrate Cleavage by York PSA", "setting": "[2]", "result": 8, "unit": "min"}, {"measurement": "Time to 50% Substrate Cleavage by York PSA", "setting": "[3]", "result": 10, "unit": "min"}, {"measurement": "Time to 50% Substrate Cleavage by York PSA", "setting": "[4]", "result": 8, "unit": "min"}, {"measurement": "Substrate cleavage by York PSA at 1 hour (printed in the column 'Time to 50% Substrate Cleavage by York PSA (Min)')", "setting": "[5]", "result": 1, "unit": "HOUR = 28%"}, {"measurement": "Time to 50% Substrate Cleavage by York PSA", "setting": "[6]", "result": 11, "unit": "min"}, {"measurement": "Time to 50% Substrate Cleavage by York PSA", "setting": "[7]", "result": 12, "unit": "min"}, {"measurement": "Time to 50% Substrate Cleavage by York PSA", "setting": "Ac-SChgQ-SSP-(HCAP)-VIN", "result": 8, "unit": "min"}, {"measurement": "Time to 50% Substrate Cleavage by York PSA", "setting": "[8]", "result": 13, "unit": "min"}, {"measurement": "Time to 50% Substrate Cleavage by York PSA", "setting": "[9]", "result": 13, "unit": "min"}, {"measurement": "Time to 50% Substrate Cleavage by York PSA", "setting": "[10]", "result": 22, "unit": "min"}, {"measurement": "Time to 50% Substrate Cleavage by York PSA", "setting": "[11]", "result": 25, "unit": "min"}, {"measurement": "Time to 50% Substrate Cleavage by York PSA", "setting": "[12]", "result": 18, "unit": "min"}, {"measurement": "Time to 50% Substrate Cleavage by York PSA", "setting": "Ac-SChgQS-Abu-(HCAP)-VIN", "result": 60, "unit": "min"}, {"measurement": "Time to 50% Substrate Cleavage by York PSA", "setting": "[13]", "result": 30, "unit": "min"}, {"measurement": "Time to 50% Substrate Cleavage by York PSA", "setting": "Ac-SChgQSS(HCAP)-dAc-VIN", "result": 12, "unit": "min"}, {"measurement": "Time to 50% Substrate Cleavage by York PSA", "setting": "[14]", "result": 7, "unit": "min"}]}]}
